# Experimental data published in US9657092B2, “S100A4 antibodies and therapeutic uses thereof” (LYKERA BIOMED SA, priority 2010, dated 2017).
# T1: Human S100A7 (Homo sapiens, UniProt P31151)
# T1 construct: made in house
# T1 sequence (P31151 1-101): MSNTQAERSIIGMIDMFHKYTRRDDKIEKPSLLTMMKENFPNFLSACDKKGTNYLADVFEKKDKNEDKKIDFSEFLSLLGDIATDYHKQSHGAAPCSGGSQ
# B1: 5C3: mouse monoclonal anti-S100A4 antibody, IgG1, from hybridoma ECACC 10022401; VL SEQ ID NO: 1, VH SEQ ID NO: 2 (antibody, V domains shown)
# VH: EAQLQQSGAELVKPGASVKLSCTASGFNIQETYMHWVKQRPEQGLEWIGRIDPANGNTKDDPKFQGKASITVDTSSNTAYLQLSSLTSEDTAVYYCASSYAMDYWGQGTSVTVSS
# VL: DVLMTQTPLSLPVSLGDQASISCRSSQSIVHSNGNTYLEWYLQKTGQSPELLIYKVSNRLSGVPDRFSGSGSGTDFTLKISRVEAEDLGVYYCFQGSHVPFTFGSGTKLEIK
# modifications: VH region of the 5C3 monoclonal antibody; VL region of the 5C3 monoclonal antibody
# Experiments:
# Mouse S100A4 = biological target: T2, Mouse S100A4 (Mus musculus, UniProt P07091); test: ELISA specificity (reaction pattern of mAb); format: binding; design: key to Reaction Pattern of mAb in ELISA, Mouse S100A4: ++++ positive reaction; − no reaction
# T2 construct: made in house
# [1] = system: IL-8 release induced by S100A4 in THP-1 monocytes; test: IL-8 release in THP-1 monocytes (sandwich ELISA); format: cell-based, human
# Protocol: Cells of the human monocytic leukemia cell line THP-1 (ATCC) were grown in RPMI 1640 culture medium supplemented with 10% FCS and 1% penicillin/streptomycin, at 37° C. in 5% CO2 in a humidified incubator. Cells were plated at 5.0×10^5 cells/well. […] Anti-mouse IgG (Fc specific) was always added in all the cases for preventing the Fc receptor response. Cell culture supernatants were collected after 24 h and stored at −20° C. The levels of IL-8 were analyzed by sandwich ELISA.
# Human S100A7 = biological target: T1, Human S100A7; test: ELISA specificity (reaction pattern of mAb); format: binding; design: key: ++++ positive reaction; − no reaction
# [2] = system: HUVECs migration induced by VEGF plus S100A4; test: HUVECs Transwell migration assay; format: cell-based, human
# Protocol: Twenty-four-well cell culture plates with light-opaque PET membrane filter inserts with 8 μm-pores (Transwell HTS FluoroBlok™ Multiwell Insert Systems from Becton Dickinson) were used to test the migratory activity. The upper and lower surfaces of the Transwell membranes were coated for 2 hours at 37° C. with 15 μg/mL of Type I Collagen (Upstate). Endothelial cells (5×10^4 HUVEC's) suspended in 100 μl of EBM in the absence of serum or other supplements were seeded, after the collagen coating, onto the upper side of each Transwell chamber and incubated for 4 hours at 37° C. Then, S100A4 (1 μM), alone or in combination with VEGF (3 ng/mL) in EBM were added to the lower compartment of the 24-well plates to test their chemotactic capacity. […] Other monoclonal antibody anti-S100A4 called 5H4 (Leitat Biomed Division) was used to compare the activity. After 24 hours at 37° C., cells that had migrated to the lower side of the transwell were incubated with 5 μM Calcein-AM (Calbiochem) for 25-30 minutes at 37° C. Migrated cells were counted under a light microscope at a magnification of ×10. Comparisons between groups were made using the two-tailed nonparametric Mann Whitney U test. Differences for which P value was less than 0.05 were considered statistically significant.
# [3] = system: MMP9 proteolytic activity induced by S100A4; test: Gelatin zymography of HUVECs conditioned media; format: cell-based, human; settings: 1-2 μM antibody with S100A4 1 μM, 24 h
# Protocol: HUVECs were grown in EBM plus supplements (EGM) and 10% FCS, in 24-well culture plates. Before stimulation, cells were maintained 4 hours in EBM in the absence of serum or other supplements. Then, S100A4 (0.3-1-3 μM), in EBM were added to the culture to analyze their capacity to increase the secretion of active forms of matrix metalloproteinases (MMPs). […] After 24 hours at 37° C., supernatants were centrifuged to remove the debris. Then, 10 μL of Laemmli sample buffer without reducing agent (80 mM Tris-HCl pH 6.8, 4% SDS, 10% glycerol, 0.01% bromophenol blue) was added to 10 μl of each of the clear supernatants that were loaded without boiling in a 8% SDS-polyacrylamide gel copolymerized with Type A gelatine from porcine skin (Sigma) at a final concentration of 1 mg/mL. After electrophoresis, SDS was removed by washing the gel three times for 15 minutes with 2.5% Triton X-100 in H2O. […] Staining was performed for 1 hour at RT with 0.1% naphthol amido black (Sigma) in acetic acid, methanol and water at a proportion of 1:3:6 in volume. Then, gels were washed with destaining solution until clear bands were observed over a dark background. Bands were quantified using the NIH ImageJ imaging software.
# HCT116 tumors = test: HCT116 subcutaneous xenograft tumor development; format: in vivo, nude mice; settings: HCT116, end of experiment (day 21)
# Protocol: MiaPACA-2 human pancreatic adenocarcinoma cell line and HCT116 human colorectal adenocarcinoma cell line in exponential growth were harvested with trypsin-EDTA (0.05%/0.02%) (Invitrogen), washed, and examined for viability by trypan blue dye exclusion. Viability was greater than 95%. For primary tumor growth, cells (either 5×10^6 or 1×10^6 cells for MiaPACA-2 or HCT116 respectively in 0.1 mL DMEM high glucose) were subcutaneously injected into the flanks of nude mice. Tumor volumes between 65-160 mm^3 for MiaPACA-2 and volumes between 155-370 mm^3 for HCT116 were used to divide the mice into two groups of either ten mice each (MiaPACA-2) or seven mice each (HCT116), such that the mean tumor size was equal between groups (approximately 100 mm^3 for MiaPACA-2 or 220 mm^3 for HCT116). Tumor growth was followed by measuring tumor diameters with calipers and the tumor volume was calculated using an approximated formula for a prolate ellipsoid: volume=(D×d^2)/2 where D is the longest axis of the tumor and d the shortest. Mice were treated either with vehicle (PBS) or with the antibody, i.p. three times per week at 25 mg/Kg/100 μL of sterile PBS, starting the treatment at defined tumor volume (100 mm^3 and 220 mm^3). […]
# [4] = VEGF 3 ng/mL plus S100A4 1 μM, 24 h
# T2 sequence (P07091 whole entry): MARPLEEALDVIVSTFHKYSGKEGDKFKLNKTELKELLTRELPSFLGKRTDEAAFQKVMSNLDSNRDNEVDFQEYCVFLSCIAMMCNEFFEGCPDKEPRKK
molecule,measurement,setting,value
B1,"Reaction Pattern of mAb in ELISA, Mouse S100A4",Mouse S100A4,++++
same,reaction with murine S100A4 by ELISA,Mouse S100A4; purified protein,reacted
same,IL-8 release induced by S100A4,"[1]; S100A4 3 μM, 24 h",can be blocked
same,IL-8 levels in absence of S100A4,"[1]; absence of S100A4, data not shown",no effect
same,"Reaction Pattern of mAb in ELISA, Human S100A7",Human S100A7,−
same,concentration that abolished the synergistic effect of VEGF plus S100A4 on HUVECs migration,[2]; [4],250 nM
same,neutralizing activity on HUVECs migration induced by S100A4,[2]; [4],in vitro neutralizing activity
same,migration induced by VEGF alone,[2]; VEGF alone,did not affect
same,activity of MMP9 in the media,[3],completely reduced
same,tumor weight compared with the control group,HCT116 tumors,induced a decrease in tumor weight
